# Test results reported in patent CN111662385A.
# Biological target: human GPC3 recombinant protein (human) (UniProt P51654)
# Assay: BLI (ForteBio), antibody 5 ug/ml on anti-human IgG Fc sensor, GPC3 62.5-1000 nM
substance,measurement,value
hGC33(Codrituzumab) (antibody),Kd,1.74 nM
same,koff,0.00024 s⁻¹
same,kon,141000 M⁻¹ s⁻¹
